Source: paper PMC4052671, “Cloning, expression and characterization of a versatile Baeyer-Villiger monooxygenase from Dietzia sp. D5” (AMB Express, 2014)

What was measured:
[1] = tested on: CC(=O)Cc1ccccc1; test: purified protein; format: biochemical, Dietzia sp. D5; conditions: co-substrate NADPH (60 μM in the standard assay), 50 mM sodium phosphate pH 7.5, 10 mM KCl, 25 °C
[2] = target: T1, BVMO4 (Dietzia sp. D5, UniProt U5S003, P2A); test: activity recovery of purified enzyme on FAD addition; format: biochemical; conditions: FAD added to 10 μM after Ni-NTA purification; phenylacetone as substrate; pH 7.5
T1 construct: full length, 612 residues; His-tagged in pET-22b(+) (NcoI/NotI); E. coli BL21-CodonPlus(DE3)-RP; Ni-NTA; about 75 kDa on SDS-PAGE, predicted 72 kDa; FAD added after purification

[3] = substrate: NC(=O)C1=CN([C@@H]2O[C@H](COP(=O)(O)OP(=O)(O)OC[C@H]3O[C@@H](n4cnc5c(N)ncnc54)[C@H](OP(=O)(O)O)[C@@H]3O)[C@@H](O)[C@H]2O)C=CC1; test: purified protein; format: biochemical, Dietzia sp. D5; conditions: NADPH varied, fixed ketone substrate not stated, 50 mM sodium phosphate pH 7.5, 10 mM KCl, 25 °C, varied: cofactor
[4] = substrate: CC1CCCCC1=O; test: purified protein; format: biochemical, Dietzia sp. D5; conditions: co-substrate NADPH (60 μM in the standard assay), 50 mM sodium phosphate pH 7.5, 10 mM KCl, 25 °C

Molecule: BVMO4 (Dietzia sp. D5; P2A)
- Km [1]: 0.829 ± 0.163 mM
- Vmax [1]: 4.74 µM/min
- kcat [1]: 0.634 ± 0.104 s⁻¹
- kcat/Km [1]: 770 ± 30 M⁻¹ s⁻¹

Molecule: Cc1cc2nc3c(=O)[nH]c(=O)nc-3n(C[C@H](O)[C@H](O)[C@H](O)COP(=O)(O)OP(=O)(O)OC[C@H]3O[C@@H](n4cnc5c(N)ncnc54)[C@H](O)[C@@H]3O)c2cc1C [FAD]
- activity recovery of purified enzyme on FAD addition [2]: The enzyme lost its activity during the purification process but was recovered upon addition of FAD

B1: BVMO4 (Dietzia sp. D5; P2A) (protein)
chain: MAFTLPESKIAIDIDFDPDHLRQRFEADKQARERKDQLAQFQGLDDVLEVDDSDPFSEPITREPVTEELDALVLGGGFGGLTAGAYLTQNGVENFRLVEYGGDFGGTWYWNRYPGVQCDIESHIYMPLLEETGYVPSQRYADGSEIFEHAQRIGRHYGLYDRTYFQTRATHARWDEQIQRWEVTTDRGDRFVTRVLLRSNGALTKPQLPKVPGIGDFEGKIFHTSRWDYGYTGGSAAGDLAHLRDKRVAVVGTGATGVQVVPYLAQDAKELVVVQRTPSVVQPRNNRKTDPEWVASLTPGWQYERHDNFNGIISGHEVEGNLVDDGWTHLFPELTGQHLVDVPVGELPEGDQALVAELADMNLLMSAHARVDSIVTDPATADGLKPWFGYMCKRPCFNDEYLEAFNRPNVTLAASPAGIDGITSSGIVVAGTHYEVDCIIFATGFETGSGPAGIYGYDVIGREGHSMQEYFSEGARTFHGFFTHGFPNFVELGMSQTAYYVNFVYMLDRKARHAARLVRHLLDSGIGTFEPTAEAEADWVAEVRRSNEPREAYWGACTPGYYNGQGEVSKAVFRDVYNSSEIDFWNMIEAWWNSGRFEGLVFEPARDAVPVA
notes: full length, 612 residues; His-tagged in pET-22b(+) (NcoI/NotI); E. coli BL21-CodonPlus(DE3)-RP; Ni-NTA; about 75 kDa on SDS-PAGE, predicted 72 kDa; FAD added after purification
- Km [3]: 0.011 ± 0.002 mM
- Vmax [3]: 4.2 µM/min
- kcat [3]: 0.507 ± 0.057 s⁻¹
- kcat/Km [3]: 45100 ± 1520 M⁻¹ s⁻¹
- Km [4]: 0.507 ± 0.142 mM
- Vmax [4]: 3.07 µM/min
- kcat [4]: 0.37 ± 0.095 s⁻¹
- kcat/Km [4]: 730 ± 20 M⁻¹ s⁻¹
